Patent US20140274782A1, “AFFINITY REAGENTS AND METHODS FOR DETECTION, PURIFICATION, AND PROTEOMIC ANALYSIS OF METHYLATED PROTEINS” (The Board of Trustees of the Leland Stanford Junior …, priority 2013, published 2014)

B1: HNRNPA1 (protein, UniProt P09651 1-372, looked up)
Heterogeneous nuclear …: MSKSESPKEPEQLRKLFIGGLSFETTDESLRSHFEQWGTLTDCVVMRDPNTKRSRGFGFVTYATVEEVDAAMNARPHKVDGRVVEPKRAVSREDSQRPGAHLTVKKIFVGGIKEDTEEHHLRDYFEQYGKIEVIEIMTDRGSGKKRGFAFVTFDDHDSVDKIVIQKYHTVNGHNCEVRKALSKQEMASASSSQRGRSGSGNFGGGRGGGFGGNDNFGRGGNFSGRGGFGGSRGGGGYGGSGDGYNGFGNDGGYGGGGPGYSGGSRGYGSGGQGYGNQGSGYGGSGSYDSYNNGGGGGFGGGSGSNFGGGGSYNDFGNYNNQSSNFGPMKGGNFGGRSSGPYGGGGQYFAKPRNQGGYGGSSSSSSYGSGRRF
B2: SEPT2 (protein, UniProt Q15019 1-361, looked up)
Septin-2: MSKQQPTQFINPETPGYVGFANLPNQVHRKSVKKGFEFTLMVVGESGLGKSTLINSLFLTDLYPERVIPGAAEKIERTVQIEASTVEIEERGVKLRLTVVDTPGYGDAINCRDCFKTIISYIDEQFERYLHDESGLNRRHIIDNRVHCCFYFISPFGHGLKPLDVAFMKAIHNKVNIVPVIAKADTLTLKERERLKKRILDEIEEHNIKIYHLPDAESDEDEDFKEQTRLLKASIPFSVVGSNQLIEAKGKKVRGRLYPWGVVEVENPEHNDFLKLRTMLITHMQDLQEVTQDLHYENFRSERLKRGGRKVENEDMNKDQILLEKEAELRRMQEMIARMQAQMQMQMQGGDGDGGALGHHV
B3: PCBP2 (protein, UniProt Q15366 1-365, looked up)
Poly(rC)-binding protein 2: MDTGVIEGGLNVTLTIRLLMHGKEVGSIIGKKGESVKKMREESGARINISEGNCPERIITLAGPTNAIFKAFAMIIDKLEEDISSSMTNSTAASRPPVTLRLVVPASQCGSLIGKGGCKIKEIRESTGAQVQVAGDMLPNSTERAITIAGIPQSIIECVKQICVVMLETLSQSPPKGVTIPYRPKPSSSPVIFAGGQDRYSTGSDSASFPHTTPSMCLNPDLEGPPLEAYTIQGQYAIPQPDLTKLHQLAMQQSHFPMTHGNTGFSGIESSSPEVKGYWGLDASAQTTSHELTIPNDLIGCIIGRQGAKINEIRQMSGAQIKIANPVEGSTDRQVTITGSAASISLAQYLINVRLSSETGGMGSS
B4: CTTN (protein, UniProt Q14247 1-550, looked up)
Src substrate cortactin: MWKASAGHAVSIAQDDAGADDWETDPDFVNDVSEKEQRWGAKTVQGSGHQEHINIHKLRENVFQEHQTLKEKELETGPKASHGYGGKFGVEQDRMDKSAVGHEYQSKLSKHCSQVDSVRGFGGKFGVQMDRVDQSAVGFEYQGKTEKHASQKDYSSGFGGKYGVQADRVDKSAVGFDYQGKTEKHESQRDYSKGFGGKYGIDKDKVDKSAVGFEYQGKTEKHESQKDYVKGFGGKFGVQTDRQDKCALGWDHQEKLQLHESQKDYKTGFGGKFGVQSERQDSAAVGFDYKEKLAKHESQQDYSKGFGGKYGVQKDRMDKNASTFEDVTQVSSAYQKTVPVEAVTSKTSNIRANFENLAKEKEQEDRRKAEAERAQRMAKERQEQEEARRKLEEQARAKTQTPPVSPAPQPTEERLPSSPVYEDAASFKAELSYRGPVSGTEPEPVYSMEAADYREASSQQGLAYATEAVYESAEAPGHYPAEDSTYDEYENDLGITAVALYDYQAAGDDEISFDPDDIITNIEMIDDGWWRGVCKGRYGLFPANYVELRQ
B5: ILF3 (protein, UniProt Q12906 1-894, looked up)
Interleukin enhancer-binding …: MRPMRIFVNDDRHVMAKHSSVYPTQEELEAVQNMVSHTERALKAVSDWIDEQEKGSSEQAESDNMDVPPEDDSKEGAGEQKTEHMTRTLRGVMRVGLVAKGLLLKGDLDLELVLLCKEKPTTALLDKVADNLAIQLAAVTEDKYEILQSVDDAAIVIKNTKEPPLSLTIHLTSPVVREEMEKVLAGETLSVNDPPDVLDRQKCLAALASLRHAKWFQARANGLKSCVIVIRVLRDLCTRVPTWGPLRGWPLELLCEKSIGTANRPMGAGEALRRVLECLASGIVMPDGSGIYDPCEKEATDAIGHLDRQQREDITQSAQHALRLAAFGQLHKVLGMDPLPSKMPKKPKNENPVDYTVQIPPSTTYAITPMKRPMEEDGEEKSPSKKKKKIQKKEEKAEPPQAMNALMRLNQLKPGLQYKLVSQTGPVHAPIFTMSVEVDGNSFEASGPSKKTAKLHVAVKVLQDMGLPTGAEGRDSSKGEDSAEETEAKPAVVAPAPVVEAVSTPSAAFPSDATAEQGPILTKHGKNPVMELNEKRRGLKYELISETGGSHDKRFVMEVEVDGQKFQGAGSNKKVAKAYAALAALEKLFPDTPLALDANKKKRAPVPVRGGPKFAAKPHNPGFGMGGPMHNEVPPPPNLRGRGRGGSIRGRGRGRGFGGANHGGYMNAGAGYGSYGYGGNSATAGYSQFYSNGGHSGNASGGGGGGGGGSSGYGSYYQGDNYNSPVPPKHAGKKQPHGGQQKPSYGSGYQSHQGQQQSYNQSPYSNYGPPQGKQKGYNHGQGSYSYSNSYNSPGGGGGSDYNYESKFNYSGSGGRSGGNSYGSGGASYNPGSHGGYGGGSGGGSSYQGKQGGYSQSNYNSPGSGQNYSGPPSSYQSSQGGYGRNADHSMNYQYR

Columns and labels:
[1] = tested on: 3×MBT domain of L3MBTL1; test: Triple SILAC pull-down, 3xMBT/3xMBTD355N ratio (cytoplasmic, nuclear and chromatin fractions of 293T cells); assay type: binding, human; settings: SILAC ratio, pull-down 3xMBT vs 3xMBTD355N; for 3xMBT/D355N UNC Heavy: experiment with UNC0638 in heavy SILAC media; for 3xMBT/D355N UNC Light: experiment with UNC0638 in light SILAC media;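 as to all read-outs here: proteins quantified with MaxQuant, requiring at least two unique peptides and quantification in both label directions, normalized to the mean of proteins from a digested loading control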
[2] = biological target: T1, G9a and GLP (Homo sapiens, UniProt Q96KQ7+Q9H9B1); test: Triple SILAC pull-down after UNC0638 treatment of 293T cells, DMSO/UNC0638 ratio of protein captured by 3×MBT; assay type: cell-based; parameters: cells were treated for 24 hours with UNC0638 at 2.5 μM or DMSO vehicle control; endogenous in cells; host or cells: HEK 293T; settings: for Relative to UNC0638 UNC Heavy / Relative to UNC0638 UNC Light: SILAC ratio DMSO/UNC0638 of protein pulled down with 3xMBT; for Relative to UNC0638 UNC Heavy: UNC0638 in heavy SILAC media; for Relative to UNC0638 UNC Light: UNC0638 in light SILAC media; for Relative to UNC0638 Average: average of UNC Light and UNC Heavy experiments;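 as to all read-outs here: mass spectrometry (Q-Exactive) SILAC quantitation, DMSO/UNC0638 ratio computed after subtracting 3×MBTD355N mutant pull-down background, only proteins with at least twofold 3×MBT over mutant signal considered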
T1 sequence (Q96KQ7 2-1210 limits assumed): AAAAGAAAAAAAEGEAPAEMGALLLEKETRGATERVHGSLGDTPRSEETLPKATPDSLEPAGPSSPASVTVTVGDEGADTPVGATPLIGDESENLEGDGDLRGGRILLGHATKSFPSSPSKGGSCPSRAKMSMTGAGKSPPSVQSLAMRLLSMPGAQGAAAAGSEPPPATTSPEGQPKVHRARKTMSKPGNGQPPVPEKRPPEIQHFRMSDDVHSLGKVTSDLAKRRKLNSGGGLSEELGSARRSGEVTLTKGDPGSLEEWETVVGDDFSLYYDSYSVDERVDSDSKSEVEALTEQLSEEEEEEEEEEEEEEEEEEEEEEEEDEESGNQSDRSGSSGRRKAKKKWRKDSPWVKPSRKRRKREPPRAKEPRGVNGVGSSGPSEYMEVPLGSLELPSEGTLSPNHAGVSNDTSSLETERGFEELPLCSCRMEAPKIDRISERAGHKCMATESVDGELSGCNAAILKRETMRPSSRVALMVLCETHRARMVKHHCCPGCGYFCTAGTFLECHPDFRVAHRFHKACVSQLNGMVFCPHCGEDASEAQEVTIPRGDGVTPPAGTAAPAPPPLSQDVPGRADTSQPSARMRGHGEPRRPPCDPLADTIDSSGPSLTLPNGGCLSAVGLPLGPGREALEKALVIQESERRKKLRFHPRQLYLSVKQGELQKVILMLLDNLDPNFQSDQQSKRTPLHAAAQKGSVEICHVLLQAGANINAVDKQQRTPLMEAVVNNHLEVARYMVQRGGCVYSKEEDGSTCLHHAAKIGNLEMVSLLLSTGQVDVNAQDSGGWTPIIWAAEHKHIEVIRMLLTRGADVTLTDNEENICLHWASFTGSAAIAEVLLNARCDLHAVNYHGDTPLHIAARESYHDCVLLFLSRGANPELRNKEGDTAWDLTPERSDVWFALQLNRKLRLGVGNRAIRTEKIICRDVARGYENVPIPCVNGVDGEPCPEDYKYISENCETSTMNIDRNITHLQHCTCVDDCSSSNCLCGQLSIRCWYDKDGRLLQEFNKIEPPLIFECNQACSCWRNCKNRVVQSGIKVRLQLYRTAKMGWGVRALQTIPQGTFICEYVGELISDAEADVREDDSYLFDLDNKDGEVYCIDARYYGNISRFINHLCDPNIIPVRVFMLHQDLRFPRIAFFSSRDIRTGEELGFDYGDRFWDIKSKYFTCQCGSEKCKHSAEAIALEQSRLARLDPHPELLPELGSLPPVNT
T1 sequence (Q9H9B1 2-1298 limits assumed): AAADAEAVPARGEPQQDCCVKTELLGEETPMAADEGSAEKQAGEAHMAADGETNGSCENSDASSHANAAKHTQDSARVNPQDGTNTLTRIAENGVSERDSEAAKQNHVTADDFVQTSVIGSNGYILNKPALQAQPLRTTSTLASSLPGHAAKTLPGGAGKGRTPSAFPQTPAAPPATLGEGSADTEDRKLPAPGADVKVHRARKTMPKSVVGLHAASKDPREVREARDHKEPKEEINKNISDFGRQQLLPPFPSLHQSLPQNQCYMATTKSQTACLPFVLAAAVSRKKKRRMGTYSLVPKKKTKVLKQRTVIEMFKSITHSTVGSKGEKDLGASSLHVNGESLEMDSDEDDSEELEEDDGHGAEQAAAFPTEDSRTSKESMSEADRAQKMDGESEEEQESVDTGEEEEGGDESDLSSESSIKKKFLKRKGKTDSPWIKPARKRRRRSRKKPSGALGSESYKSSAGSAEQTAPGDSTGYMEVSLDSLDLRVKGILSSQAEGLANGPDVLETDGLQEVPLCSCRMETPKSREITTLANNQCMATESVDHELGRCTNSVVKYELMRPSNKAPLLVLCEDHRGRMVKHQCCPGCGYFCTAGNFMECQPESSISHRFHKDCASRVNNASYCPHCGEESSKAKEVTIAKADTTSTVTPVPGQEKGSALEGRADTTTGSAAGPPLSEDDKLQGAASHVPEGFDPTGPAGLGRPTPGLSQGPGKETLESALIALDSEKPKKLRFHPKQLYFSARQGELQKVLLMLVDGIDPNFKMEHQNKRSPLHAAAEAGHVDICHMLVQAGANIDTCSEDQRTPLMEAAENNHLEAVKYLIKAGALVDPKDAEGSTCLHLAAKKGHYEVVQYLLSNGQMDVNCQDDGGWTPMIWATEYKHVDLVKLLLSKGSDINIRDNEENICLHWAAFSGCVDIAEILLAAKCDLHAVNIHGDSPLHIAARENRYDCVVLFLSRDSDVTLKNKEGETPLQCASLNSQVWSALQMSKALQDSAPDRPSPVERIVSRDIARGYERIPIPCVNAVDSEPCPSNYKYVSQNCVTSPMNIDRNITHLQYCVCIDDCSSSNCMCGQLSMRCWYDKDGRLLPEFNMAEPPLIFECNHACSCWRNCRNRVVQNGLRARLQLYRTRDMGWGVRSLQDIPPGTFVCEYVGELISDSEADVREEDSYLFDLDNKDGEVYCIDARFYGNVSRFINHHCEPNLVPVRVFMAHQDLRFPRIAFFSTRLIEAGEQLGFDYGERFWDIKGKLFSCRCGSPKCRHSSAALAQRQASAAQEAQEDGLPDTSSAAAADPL

| Molecule | 3xMBT/D355N UNC Heavy [1] [log base 2] | 3xMBT/D355N UNC Light [1] [log base 2] | Relative to UNC0638 UNC Heavy [2] [log base 2] | Relative to UNC0638 UNC Light [2] [log base 2] | Relative to UNC0638 Average [2] [log base 2] |
| --- | --- | --- | --- | --- | --- |
| B1 | 3.75 | 4.25 | 0.09 | 0.25 | 0.17 |
| B2 | 1.89 | 2.49 | 0.21 | 0.12 | 0.17 |
| B3 | 1.88 | 2.41 | 0.13 | 0.21 | 0.17 |
| B4 | 1.52 | 2.75 | 0.26 | 0.08 | 0.17 |
| B5 | 3.53 | 4.28 | 0.11 | 0.23 | 0.17 |
